The chains are these.
B2: human NDR2 (residues 25-88), N-terminal regulatory domain (NTR) (domain or fragment, UniProt Q9Y2H1 25-88, looked up)
chain: KLTLENFYSNLILQHEERETRQKKLEVAMEEEGLADEEKKLRRSQHARKETEFLRLKRTRLGLD
notes: human NDR2, residues 25-88 (NTR); also called NDR2 (25-88); NTR of NDR2; source: E. coli BL21(DE3), purified (Ni-NTA)

The target of assay [1] is T1, human NDR2 (residues 25-88), N-terminal regulatory domain (NTR) (human, UniProt Q9Y2H1 25-88).
T1 chain: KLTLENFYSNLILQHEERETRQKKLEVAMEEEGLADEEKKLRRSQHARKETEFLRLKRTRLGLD
Briefly: ITC. (In ITC the heat of successive injections is recorded.)

Assay [2] addresses T2, human LATS1 (residues 640-703), NTR (human, UniProt O95835 640-703).
T2 chain: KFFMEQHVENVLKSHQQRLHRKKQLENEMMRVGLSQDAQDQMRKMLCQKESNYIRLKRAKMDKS
Briefly: ITC; MOB1 phosphorylated by MST2.

A further assay has as its target NDR2 (25-88, Y32V) (human, UniProt Q9Y2H1 25-88, Y32V). As to the kind of experiment: ITC; MOB1 phosphorylated by MST2.
Assay [3] concerns the target T3, LATS1 (640-703, V647Y) (human, UniProt O95835 640-703, V647Y).
T3 sequence: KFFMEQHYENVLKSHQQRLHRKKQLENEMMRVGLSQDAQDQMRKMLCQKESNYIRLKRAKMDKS
Briefly: ITC; MOB1 phosphorylated by MST2.

For assay [4], the target named is T4, NDR1 (24-87, Y31V) (human, UniProt Q15208 24-87, Y31V). Briefly: ITC; MOB1 phosphorylated by MST2.
For assay [5], the target named is T5, human NDR1 (residues 24-87), NTR (human, UniProt Q15208 24-87).
T5 chain: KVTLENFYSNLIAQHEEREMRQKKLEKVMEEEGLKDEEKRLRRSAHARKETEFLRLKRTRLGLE
Briefly: ITC; MOB1 phosphorylated by MST2.

For assay [6], the target named is T6, LATS2 (603-666, V610Y) (human, UniProt Q9NRM7 603-666, V610Y).
T6 sequence: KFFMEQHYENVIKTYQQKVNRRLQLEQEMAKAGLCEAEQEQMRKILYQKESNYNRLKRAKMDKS
Briefly: ITC; MOB1 phosphorylated by MST2.

Assay [7] has as its target T7, human LATS2 (residues 603-666), NTR (human, UniProt Q9NRM7 603-666).
T7 chain: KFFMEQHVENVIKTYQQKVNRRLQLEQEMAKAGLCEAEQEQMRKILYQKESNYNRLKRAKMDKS
Briefly: ITC; MOB1 phosphorylated by MST2.

Assay [8] deals with T4, NDR1 (24-87, Y31V). Briefly: ITC; 25 °C, ITC200; 25 mM HEPES pH 7.5, 200 mM NaCl, 1 mM EDTA; ~240 μM MOB1A injected (20 x 2 μl) into ~24 μM NDR1, NDR2, LATS1 or LATS2 fragment in the cell; single-site model.
The target of assay [9] is T8, LATS1 (640-703, V647Y) (human, UniProt O95835 640-703, V647Y).
T8 construct: human LATS1, residues 640-703 (NTR); also called LATS1(V647Y); source: E. coli BL21(DE3), purified (Ni-NTA)
T8 sequence (looked up): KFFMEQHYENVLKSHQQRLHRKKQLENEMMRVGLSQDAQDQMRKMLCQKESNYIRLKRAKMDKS
The description is as above. The following applies: both partners purified.

The target in assay [10] is T9, LATS2 (603-666, V610Y) (human, UniProt Q9NRM7 603-666, V610Y).
T9 construct: human LATS2, residues 603-666 (NTR), codon-optimized synthetic gene; also called LATS2(V610Y); source: E. coli BL21(DE3), purified (Ni-NTA)
T9 sequence (looked up): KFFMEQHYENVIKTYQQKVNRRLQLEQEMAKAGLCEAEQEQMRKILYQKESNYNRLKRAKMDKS
The description is as above. As to conditions: both partners purified.

In assay [11] the target is B2. The assay is described as above. The following applies: both partners purified.
Assay [12] concerns the target T10, human NDR1 (residues 24-87), NTR (human, UniProt Q15208 24-87).
T10 construct: human NDR1, residues 24-87 (NTR); also called NTR of NDR1; source: E. coli BL21(DE3), purified (Ni-NTA)
T10 sequence (looked up): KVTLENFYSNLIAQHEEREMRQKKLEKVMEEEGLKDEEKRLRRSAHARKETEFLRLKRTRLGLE
The assay is described as above. As to conditions: both partners purified.

In assay [13] the target is T11, unphosphorylated full-length MOB1A(K104E/K105E), recombinant (human, UniProt Q9H8S9 1-216, K104E | K105E).
T11 sequence: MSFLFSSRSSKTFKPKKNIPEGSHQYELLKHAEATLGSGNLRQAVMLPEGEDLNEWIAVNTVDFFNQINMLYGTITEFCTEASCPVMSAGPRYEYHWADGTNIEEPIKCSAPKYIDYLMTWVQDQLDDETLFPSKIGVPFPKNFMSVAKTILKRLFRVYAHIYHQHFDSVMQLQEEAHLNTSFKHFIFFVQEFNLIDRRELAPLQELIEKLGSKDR
Briefly: ITC.

In assay [14] the target is T12, phospho-MOB1(K104E/K105E), full length, recombinant (human, UniProt Q9H8S9 1-216, K104E | K105E, phosphorylated in vitro by MST2 (residues 2-308); the paper names Thr12 and Thr35 as the MST1/2 phosphorylation sites of MOB1).
T12 sequence: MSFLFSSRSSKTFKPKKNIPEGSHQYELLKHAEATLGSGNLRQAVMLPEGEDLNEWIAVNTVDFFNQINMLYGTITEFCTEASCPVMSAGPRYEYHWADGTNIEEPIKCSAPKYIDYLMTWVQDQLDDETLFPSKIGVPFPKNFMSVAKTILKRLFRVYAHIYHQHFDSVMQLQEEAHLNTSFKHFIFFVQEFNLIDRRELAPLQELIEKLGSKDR
As to the kind of experiment: ITC; phosphorylated MOB1.

The target of assay [15] is T13, unphosphorylated full-length MOB1A(K104E/K105E), recombinant (human, UniProt Q9H8S9 1-216, K104E | K105E).
T13 construct: human MOB1A, full length; also called Unphosphorylated MOB1(K104E/K105E); MOB1(K104E/K104E); source: E. coli, purified as MOB1A (33-216) (Ni-NTA)
T13 sequence (looked up): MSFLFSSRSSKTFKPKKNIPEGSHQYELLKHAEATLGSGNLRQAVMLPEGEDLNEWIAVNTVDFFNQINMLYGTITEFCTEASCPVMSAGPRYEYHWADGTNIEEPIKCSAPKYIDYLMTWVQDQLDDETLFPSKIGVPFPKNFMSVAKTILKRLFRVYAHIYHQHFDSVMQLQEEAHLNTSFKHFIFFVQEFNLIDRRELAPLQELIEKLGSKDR
Briefly: ITC; 25 °C, ITC200; 25 mM HEPES pH 7.5, 200 mM NaCl, 1 mM EDTA; ~240 μM MOB1A injected (20 x 2 μl) into ~24 μM NDR1, NDR2, LATS1 or LATS2 fragment in the cell; single-site model. The following applies: both partners purified.

The target of assay [16] is T14, phospho-MOB1(K104E/K105E), full length, recombinant (human, UniProt Q9H8S9 1-216, K104E | K105E, phosphorylated in vitro by MST2 (residues 2-308); the paper names Thr12 and Thr35 as the MST1/2 phosphorylation sites of MOB1).
T14 construct: human MOB1A, full length; source: E. coli, purified (Ni-NTA), then phosphorylated in vitro by MST2 (2-308)
T14 sequence (looked up): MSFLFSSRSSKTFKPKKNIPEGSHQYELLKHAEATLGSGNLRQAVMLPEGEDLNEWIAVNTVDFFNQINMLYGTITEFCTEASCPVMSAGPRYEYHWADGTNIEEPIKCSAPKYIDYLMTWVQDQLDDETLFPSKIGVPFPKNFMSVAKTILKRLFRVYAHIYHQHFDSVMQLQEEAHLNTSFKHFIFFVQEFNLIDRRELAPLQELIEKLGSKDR
The description is as above. As to conditions: both partners purified.

Assay [17] concerns the target T15, non-phosphorylated full-length MOB1A wild-type (human, UniProt Q9H8S9 1-216).
T15 construct: human MOB1A, full length; pET28a vector; also called unphosphorylated full-length MOB1; non-phosphorylated MOB1; source: E. coli, purified as MOB1A (33-216) (Ni-NTA)
T15 sequence (looked up): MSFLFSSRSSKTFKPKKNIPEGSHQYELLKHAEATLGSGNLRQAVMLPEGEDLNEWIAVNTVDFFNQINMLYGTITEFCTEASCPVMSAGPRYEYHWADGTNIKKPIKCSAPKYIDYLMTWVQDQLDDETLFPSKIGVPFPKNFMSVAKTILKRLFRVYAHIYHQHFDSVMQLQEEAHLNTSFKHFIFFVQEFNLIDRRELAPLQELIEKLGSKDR
The description is as above. As to conditions: both partners purified.

Assay [18] has as its target T16, human MOB1A (residues 33-216) (human, UniProt Q9H8S9 33-216).
T16 construct: human MOB1A, residues 33-216; modified pET28a vector; a zinc is associated with MOB1 in the structure; also called MOB1 (33-216); MOB1A (33-216); source: E. coli BL21(DE3), purified (Ni-NTA; complex by Superdex 200)
T16 sequence (looked up): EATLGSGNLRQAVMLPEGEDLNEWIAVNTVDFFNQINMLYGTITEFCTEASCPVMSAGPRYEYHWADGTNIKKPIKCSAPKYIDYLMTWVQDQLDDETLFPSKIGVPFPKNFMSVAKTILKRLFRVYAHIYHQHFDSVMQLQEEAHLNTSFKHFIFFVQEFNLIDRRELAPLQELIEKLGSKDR
Briefly: crystal structure; MOB1A (33-216) and NDR2 (25-88) incubated 1:1 at 4 °C, complex purified on Superdex 200; crystals at 14 °C in 17% PEG 3350, 0.1 M HEPES pH 7.5, 150 mM magnesium chloride; 2.10 Å. The following applies: both partners purified.

Assay [19] concerns the target T17, recombinant full-length MOB1A(D63V) (human, UniProt Q9H8S9 1-216, D63V).
T17 construct: human MOB1A, full length; also called MOB1(D63V); source: E. coli, purified as MOB1A (33-216) (Ni-NTA)
T17 sequence (looked up): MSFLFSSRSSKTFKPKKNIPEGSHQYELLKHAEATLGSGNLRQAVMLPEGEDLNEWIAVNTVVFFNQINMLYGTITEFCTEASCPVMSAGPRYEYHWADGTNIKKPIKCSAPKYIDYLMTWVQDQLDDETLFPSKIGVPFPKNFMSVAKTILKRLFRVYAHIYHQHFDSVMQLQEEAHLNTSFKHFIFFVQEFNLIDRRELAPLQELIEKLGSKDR
As to the kind of experiment: SEC; purified full-length MOB1 proteins incubated with NDR2 (25-88), LATS1 (618-697) or MST2 (2-392) at 4 °C for 20 min in assembly buffer (20 mM Tris pH 8.0, 200 mM NaCl, 5 mM DTT); HiLoad 16/60 Superdex 200; fractions by SDS-PAGE and Coomassie; for LATS1 MOB1A was first phosphorylated by MST2 (2-308). As to conditions: both partners purified.

Bounds are passed on as bounds.

B1: MST2-phosphorylated full-length MOB1A (phospho-MOB1) (natural protein, human, UniProt Q9H8S9 1-216, looked up)
chain: MSFLFSSRSSKTFKPKKNIPEGSHQYELLKHAEATLGSGNLRQAVMLPEGEDLNEWIAVNTVDFFNQINMLYGTITEFCTEASCPVMSAGPRYEYHWADGTNIKKPIKCSAPKYIDYLMTWVQDQLDDETLFPSKIGVPFPKNFMSVAKTILKRLFRVYAHIYHQHFDSVMQLQEEAHLNTSFKHFIFFVQEFNLIDRRELAPLQELIEKLGSKDR
modifications: phosphorylated in vitro by MST2 (residues 2-308); the paper names Thr12 and Thr35 as the MST1/2 phosphorylation sites of MOB1
notes: human MOB1A, full length; the methods describe the phosphorylation reaction for MOB1A (33-216); results and legend call phospho-MOB1 full length; also called MST1/2-phosphorylated full-length MOB1; source: E. coli, purified (Ni-NTA), then phosphorylated in vitro by MST2 (2-308)
As to B1, the Kd – broadly, a measure of binding affinity in units of concentration – in assay [1] stood at 0.578 µM; in [2], 19.6 µM; with NDR2 (25-88, Y32V), 9.9 µM; in the assay with LATS1 (640-703, V647Y) [3] it was 4.42 µM; in the assay with NDR1 (24-87, Y31V) [4], 2.82 µM; in assay [5], 0.136 µM. Also, the Kd with LATS2 (603-666, V610Y) [6] was 1.54 µM; in [7], 8.93 µM. The molecule also returned a fold decrease in affinity against wild-type NDR1 with NDR1 (24-87, Y31V) [8] of 20 fold. Moreover, the “fold increase in affinity against wild-type LATS1” value with LATS1 (640-703, V647Y) [9] was 5 fold. Also, the “fold increase in affinity against wild-type LATS2” value with LATS2 (603-666, V610Y) [10] is 5 fold. Moreover, the “fold increase in affinity against LATS1 or LATS2” value in assay [11] and in [12] was no less than 15 fold each time.
Take B2: the dissociation constant Kd in assay [13] was 16.9 µM; in assay [14], 0.532 µM. The binding result in [15], in assay [16], in [17], in [18] and in assay [19] was “binds” throughout.

These data come from paper PMC5612953, “Stable MOB1 interaction with Hippo/MST is not essential for development and tissue growth control” (Nature Communications, 2017).
